The data set concerns the molecule itself. As to the kind of experiment: native gel or EMSA; NativePAGE 3-12% Bis-Tris gel, 7.5 ug of recombinant protein per lane; oligomer profile from <480 to 1236 kDa, median size read against markers. A general note: Mobility shift assays separate free from complexed probe on a gel.

Positions count from the first letter of the chain named. Names and notes keep the numbering of the source.

B1: recombinant human αA-crystallin T148D (phosphomimetic) (natural protein, UniProt P02489 1-173, looked up)
chain: MDVTIQHPWFKRTLGPFYPSRLFDQFFGEGLFEYDLLPFLSSTISPYYRQSLFRTVLDSGISEVRSDRDKFVIFLDVKHFSPEDLTVKVQDDFVEIHGKHNERQDDHGYISREFHRRYRLPSNVDQSALSCSLSADGMLTFCGPKIQDGLDATHAERAIPVSREEKPTSAPSS
Take B1: the binding result is “binds”.

B2: recombinant human αA-crystallin T148A (nonphosphorylatable) (natural protein, UniProt P02489 1-173, looked up)
chain: B1 chain with D148A
As for B2, the binding result is recorded as “binds”.

(Values after article PMC8906792 (eNeuro, 2022).)
